Assay results from patent US20050037969A1 (ARBOR VITA, published 2005).
Ends that are not written are not given here. * marks the point of attachment. Biotin = O=C1N[C@H]2[C@H](CS[C@H]2CCCCC(=O)*)N1

T1: GST-41.8 kD protein (KIAA0751) PDZ domain fusion protein (Mus musculus (Mouse), UniProt Q9EQZ7 682-763)
T1 construct: also called 41 kd; hypoth; not shown: glutathione S-transferase encoded by vector pGEX-3X (Pharmacia)
T1 sequence: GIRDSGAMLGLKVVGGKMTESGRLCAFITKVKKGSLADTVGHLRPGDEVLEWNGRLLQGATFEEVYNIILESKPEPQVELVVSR

T2: GST-AF6 PDZ domain fusion protein (Homo sapiens (Human), UniProt P55196 1001-1093)
T2 construct: also called af-6 protein; not shown: glutathione S-transferase encoded by vector pGEX-3X (Pharmacia)
T2 sequence: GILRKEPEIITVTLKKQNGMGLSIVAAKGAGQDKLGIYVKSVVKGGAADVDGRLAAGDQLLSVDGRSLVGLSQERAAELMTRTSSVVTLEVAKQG

T3: KIAA0807 (PDZ domain)-GST fusion protein (human, UniProt Q6P0Q8 1104-1192)
T3 construct: also called K807; KIAA807; not shown: glutathione S-transferase encoded by vector pGEX-3X (Pharmacia)
T3 sequence: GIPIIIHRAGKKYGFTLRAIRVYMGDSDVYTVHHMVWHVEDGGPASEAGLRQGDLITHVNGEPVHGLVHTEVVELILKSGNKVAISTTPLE

B1: CC CKR-4 C-terminal peptide AA44L (peptide)
peptide: Biotin-DTPSSSYTQSTMDHDLHDAL
notes: Only the last four residues are seen in the excerpts
B2: CC CKR-2 C-terminal peptide AA42L (peptide)
peptide: Biotin-GKGKSIGRAPEASLQDKEGA
notes: as for B1
B3: CC CKR-1R C-terminal peptide AA41L (peptide)
peptide: Biotin-LERVSSTSPSTGEHELSAGF
notes: as for B1
B4: PAG C-terminal peptide AA58L, biotinylated (peptide)
peptide: Biotin-KENDYESISDLQQGRDITRL
notes: also called Phosphoprotein Associated with GEMs
B5: CD62E C-terminal peptide AA48L (peptide)
peptide: Biotin-SSSQSLESDGSYQKPSYIL
notes: as for B1
B6: CC CKR-3 C-terminal peptide AA43L (peptide)
peptide: Biotin-LERTSSVSPSTAEPELSIVF
notes: as for B1
B7: CDw137 (4-1BB ILA) C-terminal peptide AA21L (peptide)
peptide: Biotin-QEEDGCSCRFPEEEEGGCEL
modifications: cysteine pairing not given here
notes: Marked (S), sticky peptide with high background; also called CDw137 (4-1BB ILA) (S)
B8: Mannose receptor C-terminal peptide AA31L (peptide)
peptide: Biotin-GTSDMKDLVGNIEQNEHSVI
notes: as for B1
B9: V-gated Ca2+ channel C-terminal peptide AA46L (peptide)
peptide: Biotin-SSGGRARHSYHHPDQDHWC
notes: Marked (S), sticky peptide with high background; also called V-gated Ca2+ channel (S)
B10: CD5 C-terminal peptide AA49L (peptide)
peptide: Biotin-SMQPDNSSDSDYDLHGAQRL
notes: as for B1
B11: CD114 (G-CSFR) C-terminal peptide AA27L (peptide)
peptide: Biotin-LNFPLLQGIRVHGMEALGSF
notes: as for B1

The binders below were run against T4, GST-PSD95 fusion protein (PDZ domains 1-3) (human, UniProt P31016 56-395 (rat entry)) (assay: G assay: biotinylated peptide on plate-bound GST-PDZ fusion, OD 450 nm).
T4 construct: also called human post-synaptic density protein 95; not shown: glutathione S-transferase encoded by vector pGEX-3X (Pharmacia)
T4 sequence (P31016 other isoform, or with tags, fused parts or gaps): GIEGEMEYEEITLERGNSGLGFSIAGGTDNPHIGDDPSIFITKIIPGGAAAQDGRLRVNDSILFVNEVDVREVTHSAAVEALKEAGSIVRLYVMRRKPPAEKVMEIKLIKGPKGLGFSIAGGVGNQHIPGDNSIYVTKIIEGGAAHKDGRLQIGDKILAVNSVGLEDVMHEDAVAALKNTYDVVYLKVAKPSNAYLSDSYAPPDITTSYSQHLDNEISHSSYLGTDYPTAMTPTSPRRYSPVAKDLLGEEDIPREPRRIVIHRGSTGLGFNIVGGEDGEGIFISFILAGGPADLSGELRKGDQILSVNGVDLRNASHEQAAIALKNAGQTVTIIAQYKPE
Biotin-PYGTAMEKAQLKPPATSDA (also called CD49E (alpha-4)) [CD49E C-terminal peptide AA11L, biotinylated]: no binding. Biotin-TSGTGHNQTRALRASESGI (also called CD97 (CD55L)) [CD97 C-terminal peptide AA14L, biotinylated]: no binding. Biotin-ARHRVTSYTSSSVNVSSNL [CDW128A (IL8RA) C-terminal peptide AA29.1L, biotinylated]: no binding. Biotin-PSWRRSSLSESENATSLTTF (also called CXCR5) [BLR-1 C-terminal peptide AA45L, biotinylated]: no binding. Biotin-DLGNMEENKKLEENNHKTEA (also called CD166 (CD6L)) [CD166 C-terminal peptide AA20L, biotinylated]: no binding. Biotin-YSATYSELEDPGEMSPPIDL (also called FceRlb; FcεRβI) [FceRIb C-terminal peptide AA25L, biotinylated]: no binding. B1: no binding. B2: no binding. B3: no binding.

What follows are binders tested against T1, GST-41.8 kD protein (KIAA0751) PDZ … (assay: G assay: biotinylated peptide on plate-bound GST-PDZ fusion, streptavidin-HRP, OD 450 nm).
Biotin-PYGTAMEKAQLKPPATSDA (also called CD49E (alpha-4)) [CD49E C-terminal peptide AA11L, biotinylated]: binds. Biotin-SVFSIPTLWSPWPPSSSSQL (also called CD3η; CD3-eta) [CD3n C-terminal peptide AA4L, biotinylated]: binds.

What follows are binders tested against T4, GST-PSD95 fusion protein (PDZ domains …) in the same assay as above.
Biotin-VTSPNKHLGLVTPHKTELV [CD83 C-terminal peptide AA47L, biotinylated]: binds. Biotin-KKGTYLTDETHREVKFTSL [CD46 (Form 1) C-terminal peptide AA10L, biotinylated]: binds.

What follows are binders tested against T1, GST-41.8 kD protein (KIAA0751) PDZ … (assay: G assay: biotinylated peptide on plate-bound GST-PDZ fusion, OD 450 nm; no GST-alone bar on the sheet).
Biotin-VTSPNKHLGLVTPHKTELV [CD83 C-terminal peptide AA47L, biotinylated]: no binding. Biotin-ARHRVTSYTSSSVNVSSNL [CDW128A (IL8RA) C-terminal peptide AA29.1L, biotinylated]: no binding. Biotin-PSWRRSSLSESENATSLTTF (also called CXCR5) [BLR-1 C-terminal peptide AA45L, biotinylated]: no binding. Biotin-YSATYSELEDPGEMSPPIDL (also called FceRlb; FcεRβI) [FceRIb C-terminal peptide AA25L, biotinylated]: no binding. B1: no binding. B2: no binding. B3: no binding.

These binders were tested against T2, GST-AF6 PDZ domain fusion protein (assay: A/G plate assays, Table 2 matrix).
Biotin-QGDPALQDAGDSSRKEYFI (also called GC) [Glycophorin C C-terminal peptide AA37L, biotinylated]: binds.

These binders were tested against T3, KIAA0807 (PDZ domain)-GST fusion protein (assay: A/G plate assays, Table 2 matrix).
B4: binds. Biotin-SVFSIPTLWSPWPPSSSSQL (also called CD3η; CD3-eta) [CD3n C-terminal peptide AA4L, biotinylated]: binds. Biotin-KDSRPSFVGSSSGHTSTTL (also called CDW128E (IL8RB)) [CDW128B (IL8RB) C-terminal peptide AA29.2L, biotinylated]: binds. Biotin-KKGTYLTDETHREVKFTSL [CD46 (Form 1) C-terminal peptide AA10L, biotinylated]: binds. Biotin-AWDDSARAAGGQGLHVTAL [LPAP C-terminal peptide AA30L, biotinylated]: binds.

What follows are binders tested against T1, GST-41.8 kD protein (KIAA0751) PDZ … (assay: A/G plate assays, Table 2 matrix).
Biotin-HKAEIHAQPSDKERLTSDA (also called CD49F (Aform, alpha6)) [CD49F C-terminal peptide AA12L, biotinylated]: binds. Biotin-TSGTGHNQTRALRASESGI (also called CD97 (CD55L)) [CD97 C-terminal peptide AA14L, biotinylated]: binds. Biotin-QGDPALQDAGDSSRKEYFI (also called GC) [Glycophorin C C-terminal peptide AA37L, biotinylated]: binds. Biotin-KDSRPSFVGSSSGHTSTTL (also called CDW128E (IL8RB)) [CDW128B (IL8RB) C-terminal peptide AA29.2L, biotinylated]: binds. Biotin-SPQPDSTDNDDYDDISAA [CD6 C-terminal peptide AA6L, biotinylated]: binds.

These binders were tested against T4, GST-PSD95 fusion protein (PDZ domains …) (assay: A/G plate assays, Table 2 matrix).
Biotin-SVFSIPTLWSPWPPSSSSQL (also called CD3η; CD3-eta) [CD3n C-terminal peptide AA4L, biotinylated]: binds. Biotin-LASKSAEEGKQIPDSLSTDL [DOCK2 C-terminal peptide AA40L, biotinylated]: binds. Biotin-QGDPALQDAGDSSRKEYFI (also called GC) [Glycophorin C C-terminal peptide AA37L, biotinylated]: binds. Biotin-KDSRPSFVGSSSGHTSTTL (also called CDW128E (IL8RB)) [CDW128B (IL8RB) C-terminal peptide AA29.2L, biotinylated]: binds.

These binders were tested against T1, GST-41.8 kD protein (KIAA0751) PDZ … (assay: A/G assays).
B5: no binding. B4: no binding. B6: no binding. B7: no binding. Biotin-QATSENGHSARQHVVADTEL [CD34 C-terminal peptide AA7L, biotinylated]: no binding. Biotin-QFMTADETRNLQNVDMKIGV (also called CD44 (long form)) [CD44 C-terminal peptide AA9L, biotinylated]: no binding. Biotin-LASKSAEEGKQIPDSLSTDL [DOCK2 C-terminal peptide AA40L, biotinylated]: no binding. Biotin-ISKATPALPTVSISSSAEV (also called AA1L-R) [Clasp-1 C-terminal peptide AA1L, biotinylated]: no binding. Biotin-DLGNMEENKKLEENNHKTEA (also called CD166 (CD6L)) [CD166 C-terminal peptide AA20L, biotinylated]: no binding. B8: no binding. B9: no binding. Biotin-ENLAPVTTFGKTNGYIA (also called CD148 (DEP-1)) [CD148 C-terminal peptide AA19L, biotinylated]: no binding. Biotin-SSKSKSSEESQTFFGLYKL (not fully specified, also called FasLigand; Fas ligand) [FasL C-terminal peptide AA23L-M, biotinylated]: no binding. Biotin-KKGTYLTDETHREVKFTSL [CD46 (Form 1) C-terminal peptide AA10L, biotinylated]: no binding. Biotin-AWDDSARAAGGQGLHVTAL [LPAP C-terminal peptide AA30L, biotinylated]: no binding. B10: no binding. B11: no binding.

These binders were tested against T5, NOS1 PDZ-GST fusion protein (Homo sapiens (Human), UniProt P29475 11-100) (assay: A/G assays).
T5 construct: Order of GST and PDZ part and limits not seen in the excerpts
T5 sequence (P29475 11-100 limits assumed): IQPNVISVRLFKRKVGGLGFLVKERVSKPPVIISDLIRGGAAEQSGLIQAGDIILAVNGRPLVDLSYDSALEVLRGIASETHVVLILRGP
B5: no binding. B4: no binding. Biotin-PYGTAMEKAQLKPPATSDA (also called CD49E (alpha-4)) [CD49E C-terminal peptide AA11L, biotinylated]: no binding. Biotin-VTSPNKHLGLVTPHKTELV [CD83 C-terminal peptide AA47L, biotinylated]: no binding. B6: no binding. B7: no binding. Biotin-SVFSIPTLWSPWPPSSSSQL (also called CD3η; CD3-eta) [CD3n C-terminal peptide AA4L, biotinylated]: no binding. Biotin-HKAEIHAQPSDKERLTSDA (also called CD49F (Aform, alpha6)) [CD49F C-terminal peptide AA12L, biotinylated]: no binding. Biotin-QATSENGHSARQHVVADTEL [CD34 C-terminal peptide AA7L, biotinylated]: no binding. Biotin-CAISGTSSDRGYGSPRYAEV (also called AA3L-V) [Clasp-4 C-terminal peptide AA3L, biotinylated]: no binding. Biotin-TSGTGHNQTRALRASESGI (also called CD97 (CD55L)) [CD97 C-terminal peptide AA14L, biotinylated]: no binding. Biotin-ARHRVTSYTSSSVNVSSNL [CDW128A (IL8RA) C-terminal peptide AA29.1L, biotinylated]: no binding. Biotin-QFMTADETRNLQNVDMKIGV (also called CD44 (long form)) [CD44 C-terminal peptide AA9L, biotinylated]: no binding. Biotin-LASKSAEEGKQIPDSLSTDL [DOCK2 C-terminal peptide AA40L, biotinylated]: no binding. Biotin-PSWRRSSLSESENATSLTTF (also called CXCR5) [BLR-1 C-terminal peptide AA45L, biotinylated]: no binding. Biotin-QGDPALQDAGDSSRKEYFI (also called GC) [Glycophorin C C-terminal peptide AA37L, biotinylated]: no binding. Biotin-ISKATPALPTVSISSSAEV (also called AA1L-R) [Clasp-1 C-terminal peptide AA1L, biotinylated]: no binding. Biotin-DLGNMEENKKLEENNHKTEA (also called CD166 (CD6L)) [CD166 C-terminal peptide AA20L, biotinylated]: no binding. B8: no binding. Biotin-YSATYSELEDPGEMSPPIDL (also called FceRlb; FcεRβI) [FceRIb C-terminal peptide AA25L, biotinylated]: no binding. Biotin-KDSRPSFVGSSSGHTSTTL (also called CDW128E (IL8RB)) [CDW128B (IL8RB) C-terminal peptide AA29.2L, biotinylated]: no binding. B1: no binding. B9: no binding. Biotin-ENLAPVTTFGKTNGYIA (also called CD148 (DEP-1)) [CD148 C-terminal peptide AA19L, biotinylated]: no binding. B2: no binding. Biotin-SSKSKSSEESQTFFGLYKL (not fully specified, also called FasLigand; Fas ligand) [FasL C-terminal peptide AA23L-M, biotinylated]: no binding. Biotin-KKGTYLTDETHREVKFTSL [CD46 (Form 1) C-terminal peptide AA10L, biotinylated]: no binding. B3: no binding. B10: no binding. Biotin-SPQPDSTDNDDYDDISAA [CD6 C-terminal peptide AA6L, biotinylated]: no binding. B11: no binding.

These binders were tested against T4, GST-PSD95 fusion protein (PDZ domains …) (assay: A/G assays).
B5: no binding. B4: no binding. B6: no binding. B7: no binding. Biotin-HKAEIHAQPSDKERLTSDA (also called CD49F (Aform, alpha6)) [CD49F C-terminal peptide AA12L, biotinylated]: no binding. Biotin-QFMTADETRNLQNVDMKIGV (also called CD44 (long form)) [CD44 C-terminal peptide AA9L, biotinylated]: no binding. B8: no binding. B9: no binding. Biotin-ENLAPVTTFGKTNGYIA (also called CD148 (DEP-1)) [CD148 C-terminal peptide AA19L, biotinylated]: no binding. Biotin-SSKSKSSEESQTFFGLYKL (not fully specified, also called FasLigand; Fas ligand) [FasL C-terminal peptide AA23L-M, biotinylated]: no binding. Biotin-AWDDSARAAGGQGLHVTAL [LPAP C-terminal peptide AA30L, biotinylated]: no binding. B10: no binding. Biotin-SPQPDSTDNDDYDDISAA [CD6 C-terminal peptide AA6L, biotinylated]: no binding. B11: no binding.
